{
  "source": "paper PMC9398120",
  "about": "(Molecular Cancer Therapeutics, 2021)",
  "binders": {"B1": {"name": "mAb19 (antibody, V domains shown)", "VH": "QVQLVQSGAEVKKPGDSVKVSCKASGYTFTTYWMHWVRQAPGQGLEWMGAIYPGLSDTTYNQKFKGKVTMTRDTSTSTVYMKLSSLRSEDTAVYYCARLLDYAMDYWGQGTLVTVSS", "VL": "DIQMTQSPSSLSASVGDRVTITCRASQDIRSYLNWHQQKPGKAPKLLIWYTSRLHSGVPSRFSGSGSGTDYTLTISSLQPEDFATYFCQQGETLPWTFGQGTKLEIK"}},
  "key": {"recombinant CD73 [1]": {"target": "T1, recombinant CD73 (Homo sapiens, UniProt P21589)", "T1 sequence (P21589 27-549)": "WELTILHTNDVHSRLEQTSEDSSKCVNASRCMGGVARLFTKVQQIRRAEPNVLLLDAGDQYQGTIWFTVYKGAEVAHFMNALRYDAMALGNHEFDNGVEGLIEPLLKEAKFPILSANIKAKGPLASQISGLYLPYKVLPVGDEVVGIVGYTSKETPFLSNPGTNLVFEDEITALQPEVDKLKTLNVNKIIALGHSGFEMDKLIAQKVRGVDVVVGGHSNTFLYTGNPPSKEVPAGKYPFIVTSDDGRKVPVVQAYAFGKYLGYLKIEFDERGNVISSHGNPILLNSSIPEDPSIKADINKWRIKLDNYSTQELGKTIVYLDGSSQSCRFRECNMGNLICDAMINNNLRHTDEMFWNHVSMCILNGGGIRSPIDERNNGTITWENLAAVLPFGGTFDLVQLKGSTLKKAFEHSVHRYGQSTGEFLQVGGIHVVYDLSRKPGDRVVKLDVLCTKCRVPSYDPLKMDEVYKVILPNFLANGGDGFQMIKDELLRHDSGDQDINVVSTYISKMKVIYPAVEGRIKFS"}, "recombinant CD73 [2]": {"target": "T1, recombinant CD73", "test": "AUC"}},
  "data": [
    {"binder": "B1", "values": [
      {"measurement": "Kd", "setting": "recombinant CD73 [1]", "result": 0.074, "unit": "nM"},
      {"measurement": "stoichiometry N", "setting": "recombinant CD73 [2]", "result": "1 mAb19 per CD73 (printed as 2:2)"}
    ]}
  ]
}
